IntAct's records for PubMed 31515488

B1: "N-acyl-aromatic-L-amino acid amidohydrolase (carboxylate-forming)" (Homo sapiens), Q96HD9 (parent)
chain: MCSLPVPREPLRRVAVTGGTHGNEMSGVYLARHWLHAPAELQRASFSAVPVLANPAATSGCRRYVDHDLNRTFTSSFLNSRPTPDDPYEVTRARELNQLLGPKASGQAFDFVLDLHNTTANMGTCLIAKSSHEVFAMHLCRHLQLQYPELSCQVFLYQRSGEESYNLDSVAKNGLGLELGPQPQGVLRADIFSRMRTLVATVLDFIELFNQGTAFPAFEMEAYRPVGVVDFPRTEAGHLAGTVHPQLQDRDFQPLQPGAPIFQMFSGEDLLYEGESTVYPVFINEAAYYEKGVAFVQTEKFTFTVPAMPALTPAPSPAS
partner: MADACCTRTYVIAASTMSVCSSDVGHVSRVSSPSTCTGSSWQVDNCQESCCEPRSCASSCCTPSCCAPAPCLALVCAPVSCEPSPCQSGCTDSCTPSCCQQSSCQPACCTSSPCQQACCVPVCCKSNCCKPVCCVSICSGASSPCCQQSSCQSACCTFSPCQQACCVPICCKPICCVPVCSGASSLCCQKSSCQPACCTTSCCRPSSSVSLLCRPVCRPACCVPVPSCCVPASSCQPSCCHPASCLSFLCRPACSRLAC
B2: Syntaxin-3 (Homo sapiens), Q13277 (parent)
chain: MKDRLEQLKAKQLTQDDDTDAVEIAIDNTAFMDEFFSEIEETRLNIDKISEHVEEAKKLYSIILSAPIPEPKTKDDLEQLTTEIKKRANNVRNKLKSMEKHIEEDEVRSSADLRIRKSQHSVLSRKFVEVMTKYNEAQVDFRERSKGRIQRQLEITGKKTTDEELEEMLESGNPAIFTSGIIDSQISKQALSEIEGRHKDIVRLESSIKELHDMFMDIAMLVENQGEMLDNIELNVMHTVDHVEKARDETKKAVKYQSQARKKLIIIIVLVVVLLGILALIIGLSVGLN
B3: Transcription factor 12 (Homo sapiens), Q99081-3 (parent)
chain: MNPQQQRMAAIGTDKELSDLLDFSAMFSPPVNSGKTRPTTLGSSQFSGSGIDERGGTTSWGTSGQPSPSYDSSRGFTDSPHYSDHLNDSRLGAHEGLSPTPFMNSNLMGKTSERGSFSLYSRDTGLPGCQSSLLRQDLGLGSPAQLSSSGKPGTAYYSFSATSSRRRPLHDSAALDPLQAKKVRKVPPGLPSSVYAPSPNSDDFNRESPSYPSPKPPTSMFASTFFMQDGTHNSSDLWSSSNGMSQPGFGGILGTSTSHMSQSSSYGNLHSHDRLSYPPHSVSPTDINTSLPPMSSFHRGSTSSSPYVAASHTPPINGSDSILGTRGNAAGSSQTGDALGKALASIYSPDHTSSSFPSNPSTPVGSPSPLTGTSQWPRPGGQAPSSPSYENSLHSLKNRVEQQLHEHLQDAMSFLKDVCEQSRMEDRLDRLDDAIHVLRNHAVGPSTSLPAGHSDIHSLLGPSHNAPIGSLNSNYGGSSLVASSRSASMVGTHREDSVSLNGNHSVLSSTVTTSSTDLNHKTQENYRGGLQSQSGTVVTTEIKTENKEKDENLHEPPSSDDMKSDDESSQKDIKVSSRGRTSSTNEDEDLNPEQKIEREKERRMANNARERLRVRDINEAFKELGRMCQLHLKSEKPQTKLLILHQAVAVILSLEQQVRERNLNPKAACLKRREEEKVSAVSAEPPTTLPGTHPGLSETTNPMGHM
partner: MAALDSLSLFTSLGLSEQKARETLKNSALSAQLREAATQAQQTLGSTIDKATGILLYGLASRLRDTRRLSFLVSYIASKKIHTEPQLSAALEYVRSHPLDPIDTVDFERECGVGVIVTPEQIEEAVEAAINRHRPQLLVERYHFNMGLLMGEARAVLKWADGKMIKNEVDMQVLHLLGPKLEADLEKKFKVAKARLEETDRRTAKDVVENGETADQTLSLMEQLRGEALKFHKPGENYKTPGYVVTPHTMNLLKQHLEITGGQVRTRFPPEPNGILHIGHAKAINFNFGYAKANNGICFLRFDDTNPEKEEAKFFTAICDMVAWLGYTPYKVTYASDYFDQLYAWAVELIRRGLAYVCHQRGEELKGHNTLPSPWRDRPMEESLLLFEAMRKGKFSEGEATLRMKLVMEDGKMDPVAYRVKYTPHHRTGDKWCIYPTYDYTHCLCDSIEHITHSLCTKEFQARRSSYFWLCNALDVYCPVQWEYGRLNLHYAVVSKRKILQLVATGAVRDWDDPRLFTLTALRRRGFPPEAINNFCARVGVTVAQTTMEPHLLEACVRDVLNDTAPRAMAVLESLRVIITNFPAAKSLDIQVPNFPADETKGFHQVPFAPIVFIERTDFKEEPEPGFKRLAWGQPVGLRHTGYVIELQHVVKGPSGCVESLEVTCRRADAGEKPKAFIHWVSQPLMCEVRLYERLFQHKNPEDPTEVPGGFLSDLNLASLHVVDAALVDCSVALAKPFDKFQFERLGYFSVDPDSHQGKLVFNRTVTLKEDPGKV
B4: Asparagine synthetase [glutamine-hydrolyzing] (Homo sapiens), P08243 (parent)
chain: MCGIWALFGSDDCLSVQCLSAMKIAHRGPDAFRFENVNGYTNCCFGFHRLAVVDPLFGMQPIRVKKYPYLWLCYNGEIYNHKKMQQHFEFEYQTKVDGEIILHLYDKGGIEQTICMLDGVFAFVLLDTANKKVFLGRDTYGVRPLFKAMTEDGFLAVCSEAKGLVTLKHSATPFLKVEPFLPGHYEVLDLKPNGKVASVEMVKYHHCRDVPLHALYDNVEKLFPGFEIETVKNNLRILFNNAVKKRLMTDRRIGCLLSGGLDSSLVAATLLKQLKEAQVQYPLQTFAIGMEDSPDLLAARKVADHIGSEHYEVLFNSEEGIQALDEVIFSLETYDITTVRASVGMYLISKYIRKNTDSVVIFSGEGSDELTQGYIYFHKAPSPEKAEEESERLLRELYLFDVLRADRTTAAHGLELRVPFLDHRFSSYYLSLPPEMRIPKNGIEKHLLRETFEDSNLIPKEILWRPKEAFSDGITSVKNSWFKILQEYVEHQVDDAMMANAAQKFPFNTPKTKEGYYYRQVFERHYPGRADWLSHYWMPKWINATDPSARTLTHYKSAVKA
partner: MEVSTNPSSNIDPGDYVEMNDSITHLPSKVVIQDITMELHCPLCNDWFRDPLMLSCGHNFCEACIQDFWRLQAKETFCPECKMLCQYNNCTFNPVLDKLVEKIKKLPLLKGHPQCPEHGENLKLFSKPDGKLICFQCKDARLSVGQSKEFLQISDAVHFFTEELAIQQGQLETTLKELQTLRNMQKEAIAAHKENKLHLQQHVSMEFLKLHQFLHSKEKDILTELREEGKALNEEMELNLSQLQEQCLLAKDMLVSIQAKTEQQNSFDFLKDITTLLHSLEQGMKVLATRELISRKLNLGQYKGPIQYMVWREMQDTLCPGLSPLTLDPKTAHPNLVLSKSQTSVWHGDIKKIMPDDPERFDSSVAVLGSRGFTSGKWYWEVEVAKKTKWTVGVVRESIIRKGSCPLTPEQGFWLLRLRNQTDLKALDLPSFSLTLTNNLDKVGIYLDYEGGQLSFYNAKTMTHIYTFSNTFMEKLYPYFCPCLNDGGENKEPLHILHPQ
B5: Zinc finger protein Aiolos (Homo sapiens), Q9UKT9 (parent)
chain: MEDIQTNAELKSTQEQSVPAESAAVLNDYSLTKSHEMENVDSGEGPANEDEDIGDDSMKVKDEYSERDENVLKSEPMGNAEEPEIPYSYSREYNEYENIKLERHVVSFDSSRPTSGKMNCDVCGLSCISFNVLMVHKRSHTGERPFQCNQCGASFTQKGNLLRHIKLHTGEKPFKCHLCNYACQRRDALTGHLRTHSVEKPYKCEFCGRSYKQRSSLEEHKERCRTFLQSTDPGDTASAEARHIKAEMGSERALVLDRLASNVAKRKSSMPQKFIGEKRHCFDVNYNSSYMYEKESELIQTRMMDQAINNAISYLGAEALRPLVQTPPAPTSEMVPVISSMYPIALTRAEMSNGAPQELEKKSIHLPEKSVPSERGLSPNNSGHDSTDTDSNHEERQNHIYQQNHMVLSRARNGMPLLKEVPRSYELLKPPPICPRDSVKVINKEGEVMDVYRCDHCRVLFLDYVMFTIHMGCHGFRDPFECNMCGYRSHDRYEFSSHIARGEHRALLK
partner: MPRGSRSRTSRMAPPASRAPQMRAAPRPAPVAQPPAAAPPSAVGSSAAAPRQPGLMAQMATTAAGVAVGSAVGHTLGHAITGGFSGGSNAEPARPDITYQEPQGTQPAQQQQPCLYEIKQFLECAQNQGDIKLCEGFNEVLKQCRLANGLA
B6: Alpha-taxilin (Homo sapiens), P40222 (parent)
chain: MKNQDKKNGAAKQSNPKSSPGQPEAGPEGAQERPSQAAPAVEAEGPGSSQAPRKPEGAQARTAQSGALRDVSEELSRQLEDILSTYCVDNNQGGPGEDGAQGEPAEPEDAEKSRTYVARNGEPEPTPVVNGEKEPSKGDPNTEEIRQSDEVGDRDHRRPQEKKKAKGLGKEITLLMQTLNTLSTPEEKLAALCKKYAELLEEHRNSQKQMKLLQKKQSQLVQEKDHLRGEHSKAVLARSKLESLCRELQRHNRSLKEEGVQRAREEEEKRKEVTSHFQVTLNDIQLQMEQHNERNSKLRQENMELAERLKKLIEQYELREEHIDKVFKHKDLQQQLVDAKLQQAQEMLKEAEERHQREKDFLLKEAVESQRMCELMKQQETHLKQQLALYTEKFEEFQNTLSKSSEVFTTFKQEMEKMTKKIKKLEKETTMYRSRWESSNKALLEMAEEKTVRDKELEGLQVKIQRLEKLCRALQTERNDLNKRVQDLSAGGQGSLTDSGPERRPEGPGAQAPSSPRVTEAPCYPGAPSTEASGQTGPQEPTSARA
B7: Syntenin-2 (Homo sapiens), Q9H190 (parent)
chain: MSSLYPSLEDLKVDQAIQAQVRASPKMPALPVQATAISPPPVLYPNLAELENYMGLSLSSQEVQESLLQIPEGDSTAVSGPGPGQMVAPVTGYSLGVRRAEIKPGVREIHLCKDERGKTGLRLRKVDQGLFVQLVQANTPASLVGLRFGDQLLQIDGRDCAGWSSHKAHQVVKKASGDKIVVVVRDRPFQRTVTMHKDSMGHVGFVIKKGKIVSLVKGSSAARNGLLTNHYVCEVDGQNVIGLKDKKIMEILATAGNVVTLTIIPSVIYEHMVKKLPPVLLHHTMDHSIPDA
partner: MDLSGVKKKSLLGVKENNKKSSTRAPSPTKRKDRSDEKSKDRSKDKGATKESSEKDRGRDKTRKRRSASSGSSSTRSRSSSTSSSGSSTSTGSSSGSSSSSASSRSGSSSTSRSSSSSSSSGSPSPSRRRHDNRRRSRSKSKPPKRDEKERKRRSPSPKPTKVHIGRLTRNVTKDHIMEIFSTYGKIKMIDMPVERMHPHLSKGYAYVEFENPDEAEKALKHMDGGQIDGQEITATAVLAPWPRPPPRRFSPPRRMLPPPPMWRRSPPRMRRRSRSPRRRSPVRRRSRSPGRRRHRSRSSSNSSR

Variants of: B1
Conditions: with kr108_human KRTAP10-8, P60410

Variant | effect of a mutation on the interaction
R8Q | with no effect

Variants of: B2
Conditions: with stx4_human STX4, Q12846
Sequence of stx4_human STX4, Q12846 (Q12846 whole entry): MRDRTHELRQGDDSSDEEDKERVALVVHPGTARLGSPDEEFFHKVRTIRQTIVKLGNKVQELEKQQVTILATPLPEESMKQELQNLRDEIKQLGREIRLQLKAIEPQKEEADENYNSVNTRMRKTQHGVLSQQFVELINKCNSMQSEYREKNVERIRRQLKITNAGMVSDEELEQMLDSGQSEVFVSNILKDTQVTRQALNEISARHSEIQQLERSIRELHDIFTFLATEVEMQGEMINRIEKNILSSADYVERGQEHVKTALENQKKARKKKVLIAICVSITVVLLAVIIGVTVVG

Variant | effect of a mutation on the interaction
H198Y | disrupting interaction strength
G276S | with no effect

Variants of: B3
Conditions: with syq_human QARS1, P47897

Variant | effect of a mutation on the interaction
R74G | with no effect
Y120C | with no effect
A155T | with no effect
S446F | with no effect
A482V | with no effect
N606H | with no effect

Variants of: B4
Conditions: with tri69_human TRIM69, Q86WT6

Variant | effect of a mutation on the interaction
A277T | with no effect

Variants of: B5
Conditions: with chch2_human CHCHD2, Q9Y6H1

Variant | effect of a mutation on the interaction
A24V | with no effect
N119D | with no effect

Variants of: B6
Conditions: with cdr2_human CDR2, Q01850
Sequence of cdr2_human CDR2, Q01850 (Q01850 whole entry): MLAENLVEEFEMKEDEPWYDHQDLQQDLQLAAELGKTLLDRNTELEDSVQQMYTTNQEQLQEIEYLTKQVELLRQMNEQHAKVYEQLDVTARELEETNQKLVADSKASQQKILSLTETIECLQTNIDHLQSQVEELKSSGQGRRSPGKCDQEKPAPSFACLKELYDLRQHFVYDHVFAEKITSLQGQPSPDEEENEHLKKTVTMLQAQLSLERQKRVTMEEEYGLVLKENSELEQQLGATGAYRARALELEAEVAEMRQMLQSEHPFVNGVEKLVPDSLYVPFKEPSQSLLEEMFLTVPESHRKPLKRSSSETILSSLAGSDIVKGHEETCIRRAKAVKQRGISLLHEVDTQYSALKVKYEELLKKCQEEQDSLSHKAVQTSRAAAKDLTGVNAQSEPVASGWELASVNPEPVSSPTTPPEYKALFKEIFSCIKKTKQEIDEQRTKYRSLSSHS

Variant | effect of a mutation on the interaction
R154G | disrupting interaction strength

Variants of: B6
Conditions: with tfp11_human TFIP11, Q9UBB9
Sequence of tfp11_human TFIP11, Q9UBB9 (Q9UBB9 whole entry): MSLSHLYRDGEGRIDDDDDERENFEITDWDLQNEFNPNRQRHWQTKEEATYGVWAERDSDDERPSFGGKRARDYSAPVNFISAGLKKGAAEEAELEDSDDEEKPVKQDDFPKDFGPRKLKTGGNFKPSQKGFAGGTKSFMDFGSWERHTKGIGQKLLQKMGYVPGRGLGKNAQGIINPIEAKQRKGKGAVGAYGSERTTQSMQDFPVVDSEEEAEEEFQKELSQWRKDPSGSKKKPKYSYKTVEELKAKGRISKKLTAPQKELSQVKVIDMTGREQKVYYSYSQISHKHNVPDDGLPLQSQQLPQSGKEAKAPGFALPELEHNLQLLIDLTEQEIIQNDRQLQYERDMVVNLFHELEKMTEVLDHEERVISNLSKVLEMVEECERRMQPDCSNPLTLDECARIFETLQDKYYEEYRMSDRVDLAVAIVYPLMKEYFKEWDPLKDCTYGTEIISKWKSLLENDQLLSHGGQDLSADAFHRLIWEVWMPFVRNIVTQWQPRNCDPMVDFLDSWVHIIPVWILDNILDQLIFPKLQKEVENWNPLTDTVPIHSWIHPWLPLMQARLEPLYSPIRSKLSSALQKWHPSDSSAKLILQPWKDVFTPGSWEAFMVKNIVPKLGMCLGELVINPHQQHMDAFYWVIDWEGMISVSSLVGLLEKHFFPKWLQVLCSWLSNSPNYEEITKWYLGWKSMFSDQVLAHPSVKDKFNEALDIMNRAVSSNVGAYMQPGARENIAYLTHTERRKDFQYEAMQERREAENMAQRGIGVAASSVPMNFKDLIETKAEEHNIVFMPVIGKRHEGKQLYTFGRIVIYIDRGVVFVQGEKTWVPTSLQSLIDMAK

Variant | effect of a mutation on the interaction
R154G | disrupting interaction strength
S514R | with no effect
P541S | with no effect

Variants of: B6
Conditions: with lipa1_human PPFIA1, Q13136
Sequence of lipa1_human PPFIA1, Q13136 (Q13136 whole entry): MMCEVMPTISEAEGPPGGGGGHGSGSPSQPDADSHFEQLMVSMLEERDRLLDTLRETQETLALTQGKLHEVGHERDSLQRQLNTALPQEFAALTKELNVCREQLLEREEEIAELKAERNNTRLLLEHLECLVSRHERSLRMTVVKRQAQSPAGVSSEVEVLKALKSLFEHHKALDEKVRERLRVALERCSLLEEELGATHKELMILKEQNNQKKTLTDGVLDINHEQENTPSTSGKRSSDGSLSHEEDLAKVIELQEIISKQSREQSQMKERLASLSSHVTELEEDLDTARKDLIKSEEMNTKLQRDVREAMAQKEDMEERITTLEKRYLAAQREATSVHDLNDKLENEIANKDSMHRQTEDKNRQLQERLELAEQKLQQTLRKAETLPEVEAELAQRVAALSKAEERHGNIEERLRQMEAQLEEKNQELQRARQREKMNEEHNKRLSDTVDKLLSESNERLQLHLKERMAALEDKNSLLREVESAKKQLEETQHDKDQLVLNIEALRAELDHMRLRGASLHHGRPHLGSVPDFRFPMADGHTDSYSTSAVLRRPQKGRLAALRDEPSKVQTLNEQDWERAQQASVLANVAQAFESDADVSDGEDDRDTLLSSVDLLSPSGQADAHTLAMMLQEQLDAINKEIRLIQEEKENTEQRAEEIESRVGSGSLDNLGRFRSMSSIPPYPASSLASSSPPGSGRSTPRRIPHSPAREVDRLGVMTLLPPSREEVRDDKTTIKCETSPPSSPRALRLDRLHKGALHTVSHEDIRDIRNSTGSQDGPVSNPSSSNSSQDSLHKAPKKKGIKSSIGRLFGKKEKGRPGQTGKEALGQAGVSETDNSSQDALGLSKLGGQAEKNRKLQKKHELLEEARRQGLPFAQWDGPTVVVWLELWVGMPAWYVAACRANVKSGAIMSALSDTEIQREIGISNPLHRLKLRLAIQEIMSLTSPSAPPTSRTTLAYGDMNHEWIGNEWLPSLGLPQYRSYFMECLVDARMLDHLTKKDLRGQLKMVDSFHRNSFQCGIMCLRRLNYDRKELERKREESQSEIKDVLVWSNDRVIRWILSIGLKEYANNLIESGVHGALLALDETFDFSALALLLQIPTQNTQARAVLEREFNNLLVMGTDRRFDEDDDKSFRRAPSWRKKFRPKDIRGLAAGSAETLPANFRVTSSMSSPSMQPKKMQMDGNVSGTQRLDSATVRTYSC

Variant | effect of a mutation on the interaction
R154G | with no effect

Variants of: B6
Conditions: with ndc80_human NDC80, O14777
Sequence of ndc80_human NDC80, O14777 (O14777 whole entry): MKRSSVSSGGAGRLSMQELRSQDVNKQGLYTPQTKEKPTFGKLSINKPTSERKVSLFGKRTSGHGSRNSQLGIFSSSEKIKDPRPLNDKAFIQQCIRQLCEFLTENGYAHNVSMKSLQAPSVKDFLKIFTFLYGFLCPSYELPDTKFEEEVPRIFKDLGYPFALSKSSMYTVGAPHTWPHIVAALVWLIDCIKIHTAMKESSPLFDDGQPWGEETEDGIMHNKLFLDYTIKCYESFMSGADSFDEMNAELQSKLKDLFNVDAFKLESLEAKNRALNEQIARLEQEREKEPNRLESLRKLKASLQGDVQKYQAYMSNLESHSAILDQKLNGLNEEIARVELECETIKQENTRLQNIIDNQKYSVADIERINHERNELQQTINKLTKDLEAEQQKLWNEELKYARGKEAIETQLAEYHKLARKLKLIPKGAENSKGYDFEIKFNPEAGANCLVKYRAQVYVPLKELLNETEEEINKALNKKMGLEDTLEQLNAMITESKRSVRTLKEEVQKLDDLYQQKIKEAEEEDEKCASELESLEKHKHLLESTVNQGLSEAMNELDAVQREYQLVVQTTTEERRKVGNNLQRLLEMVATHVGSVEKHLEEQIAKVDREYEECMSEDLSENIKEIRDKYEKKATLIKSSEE

Variant | effect of a mutation on the interaction
R154G | disrupting interaction strength
S514R | with no effect
P541S | with no effect

Variants of: B6
Conditions: with cc136_human CCDC136, Q96JN2
Sequence of cc136_human CCDC136, Q96JN2 (Q96JN2 whole entry): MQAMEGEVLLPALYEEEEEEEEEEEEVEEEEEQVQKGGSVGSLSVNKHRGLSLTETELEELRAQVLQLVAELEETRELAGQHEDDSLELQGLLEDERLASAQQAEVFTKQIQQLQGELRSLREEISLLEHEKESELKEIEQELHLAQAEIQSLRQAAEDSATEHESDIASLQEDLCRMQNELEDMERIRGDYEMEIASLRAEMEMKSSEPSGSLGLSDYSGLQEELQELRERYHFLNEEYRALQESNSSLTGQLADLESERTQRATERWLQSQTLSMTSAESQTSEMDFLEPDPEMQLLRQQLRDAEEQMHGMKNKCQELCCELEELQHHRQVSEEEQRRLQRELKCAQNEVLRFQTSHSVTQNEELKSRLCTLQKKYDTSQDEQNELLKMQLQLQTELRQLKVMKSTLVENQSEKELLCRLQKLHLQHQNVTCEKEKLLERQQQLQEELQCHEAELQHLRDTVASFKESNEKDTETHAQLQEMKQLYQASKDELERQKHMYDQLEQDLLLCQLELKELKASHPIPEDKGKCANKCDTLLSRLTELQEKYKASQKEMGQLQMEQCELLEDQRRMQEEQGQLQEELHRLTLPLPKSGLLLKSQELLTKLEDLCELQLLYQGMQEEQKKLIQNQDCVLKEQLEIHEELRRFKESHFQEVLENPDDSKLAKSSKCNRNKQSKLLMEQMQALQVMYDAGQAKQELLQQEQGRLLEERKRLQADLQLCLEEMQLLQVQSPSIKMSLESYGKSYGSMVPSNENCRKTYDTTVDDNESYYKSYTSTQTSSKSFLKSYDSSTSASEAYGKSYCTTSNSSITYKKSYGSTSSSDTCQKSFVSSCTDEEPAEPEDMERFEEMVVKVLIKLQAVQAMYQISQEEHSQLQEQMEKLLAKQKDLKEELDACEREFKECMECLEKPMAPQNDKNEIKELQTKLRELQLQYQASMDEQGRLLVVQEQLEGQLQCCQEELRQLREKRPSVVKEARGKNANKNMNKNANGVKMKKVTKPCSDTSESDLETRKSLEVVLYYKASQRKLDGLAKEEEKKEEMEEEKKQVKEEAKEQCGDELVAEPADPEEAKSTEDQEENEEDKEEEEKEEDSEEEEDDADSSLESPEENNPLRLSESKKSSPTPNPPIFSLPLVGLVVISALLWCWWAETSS

Variant | effect of a mutation on the interaction
S514R | with no effect
P541S | with no effect

Variants of: B7
Conditions: with rnps1_human RNPS1, Q15287

Variant | effect of a mutation on the interaction
V182M | with no effect
G225R | disrupting interaction strength
G242R | disrupting interaction strength
